Data: patent US20100272689A1, “Protease Having Algicidal Activity, Gene Encoding the Same and Algicidal Formulation Comprising the Same” (KOREA OCEAN RESEARCH & DEVELOPMENT INSTITUTE, priority 2007, published 2010)
Several values for one entry are separate records, joined by “and”; a condition that tells them apart may be missing. Identical values can stand only once.

B1: KAOT1_11562: protein of Kordia algicida with high homology to KAOT1—10476 (protein, listed as Kordia algicida)
chain: MKRNFKIQMLYVLLTMLLLAGCQNDTEEELVEEATTAVERVDVKWLAPDDHPVVQLLYSRGYERGTIYETDEHFLAPPDLLYSKDINDYDLSDNGSNAEQAYNTGKLVSLNRMRINVFLDNSIGTDLQTQSVNAMNELNGINNCALFFVRVFNANQAQITIRSDFGAESNNVLGRAGFPSNGRPFDTVTLNVDRLDDFGADIRRNTIIHELGHCVGLRHTDWQANRERSAVNIPGTSANDTGSIMWHTINGGTPFTNGDLTAFRALFPRALRIDVVNEIDDYDYSGEIYVLDNVFVDVFTDGSYSTQTTLNRNVNVSYRINVQEYNHTSGTYYYSRNRTLTAGNNRYYIDDEEEECSPYQGETCTRQDLEIRLATSIL
modifications: Kordia algicida KAOT1_11562
B2: 10476—8: protein containing processing peptide and mature protein, without the signal peptide part (protein, listed as Kordia algicida)
chain: VVDEEQDTAIGIPQDVLQKAQSLHFNTFDMQEASFEKPNGKIEEGYMMEGDIFFTRDQLMNMELGGDITSKQYRTNNLVSPGVITIIGYTGNNSNGLTTKMQTGLRWAVDNYNALNLSISFQLTFGTDYQNKDMVVYQVQGGAGGSAGFPSGGNPYKWVKINSGMAPYSNNVHEHVIGHEIGHSIGFRHSDYFSRQSCGQNSNEGSAGVGAIHIPGTPTGWDPTSLMNACFSSSEDGEFNGNDITALNFLY
modifications: KAOT1_10476 of Kordia algicida OT-1 lacking signal peptide
notes: protein containing processing peptide and mature protein, without the signal peptide part
B3: 10476—7: protein containing only mature protein, without signal peptide and processing peptide (protein, listed as Kordia algicida)
chain: QYRTNNLVSPGVITIIGYTGNNSNGLTTKMQTGLRWAVDNYNALNLSISFQLTFGTDYQNKDMVVYQVQGGAGGSAGFPSGGNPYKWVKINSGMAPYSNNVHEHVIGHEIGHSIGFRHSDYFSRQSCGQNSNEGSAGVGAIHIPGTPTGWDPTSLMNACFSSSEDGEFNGNDITALNFLY
modifications: KAOT1_10476 of Kordia algicida OT-1 lacking signal and processing peptide
B4: MED: protein of Leeuwenhoekiella blandensis MED217 with homology to KAOT1—10476 (protein, listed as Leeuwenhoekiella blandensis)
chain: MTSCSEDAEQTTLPEAQPTSNLEVSSEIIQQVEDLGMNANYVRWDDFYFPDGSSEPRLFLEEDVVVTPEQLSSMSANVEESKSGKGDSKQYRTSALVSQGRTISIIGYTGGSQALSQKERTALQWAVANYNRLSGVSISFNLTFGTDYQNKDMVVYNNTVNNPSGAGGSAGFPSNGLPYKFVQIYGLANYDTNVVEHVMTHEIGHSVGFRHTDWFSRQSCGQNVYEGGDANHVSGTPTGYDSTSIMLACFSANEDGEFNANDITALNNMY
modifications: Leeuwenhoekiella blandensis MED217 (ZP_01059780)

Columns and labels:
Chaetoceros cuvisetus = experiment: Algicidal activity by cell count after 24 hr (Lugol staining); type: cell-based; details: 50 μl of protein (100 μg/ml), after 24 hr
Experimental: (§1) Organisms used as host for algicidal bacteria screen are Cochlodinium polykrikoides, Thalassiosira sp., Heterosigma akashiwo, Skeletonema costatum, Alexandrium sp., Gymnodium sp., Chaetoceros cuvisetus. Each algae cell was grown to log phase in F/2 broth (0.075 g NaNO3, 0.005 g NaH2PO4?H2O, 0.030 g Na2SiO3?9H2O, 1 ml F/2 trace metal solution, 1 ml F/2 vitamin solution and 1,000 ml aged seawater) [Stein, Handbook of phycological methods, Cambridge Univ. Press, 1973].
(§2) The cultured red tide organisms were diluted in F/2 broth to a final density of 0.05 (excitation wavelength=434 nm, emission wavelength=670 nm)on the fluorescent intensity using fluoro-spectrophotometer (Hitachi, Japan), and then 2.7 ml aliquots were dispensed into several test tubes (110 mm×10 mm) to prepare for the MPN (most probable number) method.
(§3) To measure algicidal activity of 10476—7 protein (SEQ ID NO:27), 50 μl of said protein (100 μg/ml) was added to the culture solutions of Cochlodinium polykrikoides, Thalassiosira sp., Heterosigma akashiwo, Skeletonema costatum, Alexandrium sp., Chaetoceros cuvisetus and Gymnodniium sp. which were prepared in Example 2. After 24 hr, said culture solutions were stained with 1% Lugol's iodine solution, and then the cell number was counted. Experimental groups with protease (experimental group 1 and 2) were compared with control group without protease in cell number and the degree of inhibition.
(§4) To check algicidal activity of proteins isolated Flavobacterium johnsoniae UW101 (ZP—01247095, SEQ ID NO: 4), Croceibacter atlanticus HTCC2559 (ZP—00951344, SEQ ID NO: 5), Leeuwenhoekiella blandensis MED217 (ZP—01059780, SEQ ID NO: 6) and Kordia algicida KAOT1—11562 (SEQ ID NO: 7), 50 μl of said protein (100 μg/ml) was added to the culture solutions of Cochlodinium polykrikoides, Thalassiosira sp., Heterosigma akashiwo, Skeletonema costatum, Alexandrium sp., Chaetoceros cuvisetus, and Gymnodium sp., which were prepared in Example 2. After 24 hr, said culture solutions were stained with 1% Lugol's iodine solution, and then the cell number was counted.
(§5) Experimental groups with protease (experimental group 1 and 2) were compared with control group without protease in cell number and the degree of inhibition.

Gymnodinium sp. = experiment: as above; type: cell-based; details: 50 μl of protein (100 μg/ml), after 24 hr
Experimental: as §1, §2, §3, §4, §5

Heterosigma akashiwo = experiment: as above; type: cell-based; details: 50 μl of protein (100 μg/ml), after 24 hr
Experimental: as §1, §2, §3, §4, §5

[1] = test system: Cochlodinium polykrikoides; experiment: as above; type: cell-based; details: 50 μl of protein (100 μg/ml), after 24 hr; for Algicidal activity (degree of inhibition): Cochlodinium polykrikoides; for Cell number: ( ): standard deviation
Experimental: as §1, §2, §3, §4, §5

Skeletonema costatum = experiment: as above; type: cell-based; details: 50 μl of protein (100 μg/ml), after 24 hr
Experimental: as §1, §2, §3, §4, §5

Alexandrium sp. = experiment: as above; type: cell-based; details: 50 μl of protein (100 μg/ml), after 24 hr
Experimental: as §1, §2, §3, §4, §5

Thalassiosira sp. = experiment: as above; type: cell-based; details: 50 μl of protein (100 μg/ml), after 24 hr
Experimental: as §1, §2, §3, §4, §5

[2] = Experimental: To observe protein processing of the protease having algicidal activity according to the present invention, analysis of protease activity was performed as the same method of Example 7 except 10476—8 protein (SEQ ID NO: 26) which was reacted at 4° C. for a week, and then that was confirmed by SDS-PAGE (FIG. 8).
gelatin [3] = experiment: Protease activity by electrophoresis on gelatin substrate gel; type: biochemical; details: refolded protein, FIG. 7
Experimental: Protease activity of proteases obtained according to Example 6 was measured using electrophoresis on gelatin substrate gel [Park, H. I., J. Biol. Chem., 275:20540-20544, 2000].

gelatin [4] = experiment: Protease activity with zinc or calcium ion (gelatin, TCA supernatant); type: biochemical; details: 0.1% gelatin, pH 8.0, 20° C., 2 hr
Experimental: Also, 5 μg of refolded protein was added to buffer solution containing 0.1% gelatin, 50 mM Tris-HCl (pH 8.0), 100 mM KCl and 1 mM zinc or calcium ion, incubated at 20° C. for 2 hr, and then 5% TCA solution (w/v) was added to the solution, followed by stand for 10 min on ice. After centrifugation for 5 min at 10,000 rpm, the protein was measured using the supernatant. Inhibition of protease activity by metal ions was measured by comparing with control group without metal ion.

gelatin [5] = experiment: Protease activity at various temperature and pH; type: biochemical
Experimental: 10476—7 protein (SEQ ID NO: 27) containing only mature protein was suspended with SDS in combination with stabilization by using EDTA and resistance to detergent, and refolded by dilution using buffer solution containing 50 mM Tris-HCl, 1 mM EDTA and 1% triton X-100 except SDS, and then protease activity was measured at various temperature and pH according to the method as described above [Park, H. I., J. Biol. Chem., 275:20540-20544, 2000]. The results are shown in FIG. 9 and FIG. 10, respectively.

Molecule	Algicidal activity (degree of inhibition) (Chaetoceros cuvisetus)	Algicidal activity (degree of inhibition) (Gymnodinium sp.)	Algicidal activity (degree of inhibition) (Heterosigma akashiwo)	Algicidal activity (degree of inhibition) [1]	Algicidal activity (degree of inhibition) (Skeletonema costatum)	Algicidal activity (degree of inhibition) (Alexandrium sp.)	Algicidal activity (degree of inhibition) (Thalassiosira sp.)	Time until turned into mature protease by degradation of processing peptide [2]	Protease activity (gelatin [3])	Effect of zinc ion on protease activity (gelatin [4]; FIG. 11)	Calcium ion concentration of maximal protease activity (gelatin [4]; FIG. 12)	The degree of inhibition (%) ([1]; experimental group 1)	Cell number ([1]; experimental group 1)	The degree of inhibition (%) ([1]; experimental group 2)	Cell number ([1]; experimental group 2)	Temperature of optimal protease activity (gelatin [5]; FIG. 9)	pH of optimal protease activity (gelatin [5]; FIG. 10)
B1	++++ (++++ means >75% the degree of inhibition)	++++ (++++ means >75% the degree of inhibition)	++++ (++++ means >75% the degree of inhibition)	++++ (++++ means >75% the degree of inhibition)	+ (+ means <25%)	++++ (++++ means >75% the degree of inhibition)	++++ (++++ means >75% the degree of inhibition)	–	–	–	–	–	–	–	–	–	–
B2	–	–	–	–	–	–	–	3 days	showed protease activity	–	–	–	–	–	–	–	–
B3	–	–	–	–	–	–	–	–	showed protease activity	inhibition of 10476—7 protein activity by zinc ion was confirmed	80 to 100 mM	40.7%	960(30) cell/ml and 940(60) cell/ml	30.0%	1040(90) cell/ml and 900(110) cell/ml	about 20 °C	7-8
B4	++++ (++++ means >75% the degree of inhibition)	++++ (++++ means >75% the degree of inhibition)	++++ (++++ means >75% the degree of inhibition)	++++ (++++ means >75% the degree of inhibition)	++++ (++++ means >75% the degree of inhibition)	++++ (++++ means >75% the degree of inhibition)	++++ (++++ means >75% the degree of inhibition)	–	–	–	–	–	–	–	–	–	–
